# Reference: ChEMBL document CHEMBL2074211, “Modulation of nitrated lipid signaling by multidrug resistance protein 1 (MRP1): glutathione conjugation and MRP1-mediated efflux inhibit nitrolinoleic acid-induced, PPARgamma-dependent transcription activation” (Biochemistry, 2006)
# B1: Multidrug resistance-associated protein 1 (Homo sapiens) (protein)
# chain: MALRGFCSADGSDPLWDWNVTWNTSNPDFTKCFQNTVLVWVPCFYLWACFPFYFLYLSRHDRGYIQMTPLNKTKTALGFLLWIVCWADLFYSFWERSRGIFLAPVFLVSPTLLGITMLLATFLIQLERRKGVQSSGIMLTFWLVALVCALAILRSKIMTALKEDAQVDLFRDITFYVYFSLLLIQLVLSCFSDRSPLFSETIHDPNPCPESSASFLSRITFWWITGLIVRGYRQPLEGSDLWSLNKEDTSEQVVPVLVKNWKKECAKTRKQPVKVVYSSKDPAQPKESSKVDANEEVEALIVKSPQKEWNPSLFKVLYKTFGPYFLMSFFFKAIHDLMMFSGPQILKLLIKFVNDTKAPDWQGYFYTVLLFVTACLQTLVLHQYFHICFVSGMRIKTAVIGAVYRKALVITNSARKSSTVGEIVNLMSVDAQRFMDLATYINMIWSAPLQVILALYLLWLNLGPSVLAGVAVMVLMVPVNAVMAMKTKTYQVAHMKSKDNRIKLMNEILNGIKVLKLYAWELAFKDKVLAIRQEELKVLKKSAYLSAVGTFTWVCTPFLVALCTFAVYVTIDENNILDAQTAFVSLALFNILRFPLNILPMVISSIVQASVSLKRLRIFLSHEELEPDSIERRPVKDGGGTNSITVRNATFTWARSDPPTLNGITFSIPEGALVAVVGQVGCGKSSLLSALLAEMDKVEGHVAIKGSVAYVPQQAWIQNDSLRENILFGCQLEEPYYRSVIQACALLPDLEILPSGDRTEIGEKGVNLSGGQKQRVSLARAVYSNADIYLFDDPLSAVDAHVGKHIFENVIGPKGMLKNKTRILVTHSMSYLPQVDVIIVMSGGKISEMGSYQELLARDGAFAEFLRTYASTEQEQDAEENGVTGVSGPGKEAKQMENGMLVTDSAGKQLQRQLSSSSSYSGDISRHHNSTAELQKAEAKKEETWKLMEADKAQTGQVKLSVYWDYMKAIGLFISFLSIFLFMCNHVSALASNYWLSLWTDDPIVNGTQEHTKVRLSVYGALGISQGIAVFGYSMAVSIGGILASRCLHVDLLHSILRSPMSFFERTPSGNLVNRFSKELDTVDSMIPEVIKMFMGSLFNVIGACIVILLATPIAAIIIPPLGLIYFFVQRFYVASSRQLKRLESVSRSPVYSHFNETLLGVSVIRAFEEQERFIHQSDLKVDENQKAYYPSIVANRWLAVRLECVGNCIVLFAALFAVISRHSLSAGLVGLSVSYSLQVTTYLNWLVRMSSEMETNIVAVERLKEYSETEKEAPWQIQETAPPSSWPQVGRVEFRNYCLRYREDLDFVLRHINVTINGGEKVGIVGRTGAGKSSLTLGLFRINESAEGEIIIDGINIAKIGLHDLRFKITIIPQDPVLFSGSLRMNLDPFSQYSDEEVWTSLELAHLKDFVSALPDKLDHECAEGGENLSVGQRQLVCLARALLRKTKILVLDEATAAVDLETDDLIQSTIRTQFEDCTVLTIAHRLNTIMDYTRVIVLDKGEIQEYGAPSDLLQQRGLFYSMAKDAGLV
# Substrate: CCCCC/C=C\C/C(=C\CCCCCCCC(=O)O[C@@H]1O[C@H](C(=O)O)[C@@H](O)[C@H](O)[C@H]1O)[N+](=O)[O-]
# Assay: TP_TRANSPORTER: vesicle uptake in MRP1-expressing membrane vesicles
# Type: functional, cell membranes, MCF7/MRP1-10
protein,measurement,value
B1,Km,0.75 µM
